{
  "source": "patent US12416034B2",
  "about": "“Recombinant production of steviol glycosides” (EVOLVA SA, priority 2011, dated 2025)",
  "key": {"RebD solubility in water": {"experiment": "RebD solubility in water", "assay_type": "physicochemical", "details": "30° C.", "experimental": "The solubility of RebD was assessed by making several different solutions of RebD in water were made and incubated at 30° C. for 72 hours. […] One with skill in the art will recognize that the solubility can be influenced by any number of conditions such as pH, temperature, or different matrices."}, "[1]": {"experiment": "Denaturation temperature by differential scanning calorimetry (DSC)", "assay_type": "physicochemical", "details": "6HIS-purified enzymes, 91D2e-b GST-purified", "experimental": "To assess the thermal stability of EUGT11 and to compare it with the other UGTs in the steviol glycosylation pathway, denaturation temperatures of the proteins were determined using differential scanning calorimetry (DSC). Use of DSC thermograms to estimate denaturation temperatures, TD, is described, for example, by E. Freire in Methods in Molecular Biology 1995, Vol. 40 191-218. DSC was performed (using 6HIS-purified EUGT11, yielding an apparent TD of 39° C.; while when GST-purified 91D2e-b was used, the measured TD was 79° C. For reference, the measured TD when using 6HIS-purified UGT74G1, UGT76G1 and UGT85C2 was 86° C. in all cases. One of skill in the art will recognize that enzyme immobilization or addition of thermal protectants can be added to the reactions to improve stability of the protein. Non-limiting examples of thermal protectants include trehalose, glycerol, ammonium sulphate, betaine, trimethylamine oxide, and proteins."}, "[2]": {"experiment": "Codon optimized UGT cell lysate assay, steviol as substrate", "assay_type": "biochemical", "details": "0.25 mM steviol, 24 hours, 30° C.", "experimental": "The wild-type, DNA 2.0, and GeneArt sequences were assayed for in vitro activity to compare reactivity on substrates in the steviol glycosides pathway. UGTs were inserted in high copy (2p) vectors and expressed from a strong constitutive promoter (GPD1) (vectors P423-GPD, P424-GPD, P425-GPD, and P426-GPD). The plasmids were transformed individually into the universal Watchmaker strain, EFSC301 (described in Example 3 of WO2011/153378) and assays were carried out using cell lysates prepared from equal amount of cells (8 OD units). For the enzymatic reactions, 6 μL of each cell lysate were incubated in a 30 μL reaction with 0.25 mM steviol (final concentration) to test UGT74G1 and UGT85C2 clones, and with 0.25 mM 13-SMG (13SMG) (final concentration) to test 76G1 and 91D2e UGTs. Assays were carried out for 24 hours at 30° C. Prior to LC-MS analysis, one volume of 100% DMSO was added to each reaction, samples were centrifuged at 16000 g, and the supernatants analysed."}, "[3]": {"experiment": "Screening by LC-MS of E. coli lysates, rubusoside as substrate", "assay_type": "biochemical", "experimental": "(§1) To analyze the approximately 1600 mutant clones of UGT91D2e, the E. coli transformants were grown overnight at 30° C. in 1 ml of NZCYM containing ampicillin (100 mg/1) and chloramphenicol (33 mg/1), in 96-well format. The next day, 150 μl of each culture was inoculated into 3 ml NZCYM containing ampicillin (100 mg/1), chloramphenicol (33 mg/1), arabinose 3 mM, IPTG 0.1 mM and ethanol 2% v/v, in 24-well format, and incubated at 20° C. and 200 rpm for ˜20 h. The following day, cells were spun down and pellets were resuspended in 100 μl of lysis buffer containing 10 mM Tris-HCl pH 8, 5 mM MgCl2, 1 mM CaCl2) and complete mini protease inhibitor EDTA-free (3 tablets/100 ml) (Hoffmann-La Roche, Basel, Switzerland) and frozen −80° C. for at least 15 minutes to promote cell lysis. […] In each case, the resulting compounds, stevioside or rebaudioside D (rebD), were measured by LC-MS. Results were analyzed in comparison with the stevioside or rebD produced by the lysates expressing the corresponding controls (91D2e, 91D2e-b, EUGT11 and the empty plasmid). […]\n(§2) Half of the 1600 clones and the corresponding controls were assayed for their capacity to glycosylate rubusoside and rebaudiosideA. Stevioside and RebD were quantified by LC-MS. […]"}, "[4]": {"experiment": "Screening by LC-MS of E. coli lysates, rebaudioside A as substrate", "assay_type": "biochemical", "details": "RebA substrate", "experimental": "as §1, §2"}, "[5]": {"experiment": "Enzyme kinetics with RebA as substrate", "assay_type": "biochemical", "details": "Reb A", "experimental": "(§3) A series of experiments were performed to determine kinetic parameters of EUGT11 and 91D2e-b. For both enzymes, 100 μM RebA, 300 μM UDP-glucose, and 10 U/mL Alkaline Phosphatase (Fermentas/Thermo Fisher, Waltham, MA) were used in the reactions. For EUGT11, the reactions were performed at 37° C. using 100 mM Tris-HCl, pH 7, and 2% enzyme. For 91D2e-b, the reactions were performed at 30° C. using 20 mM Hepes-NaOH, pH 7.6, 20% (by volume) enzyme. The initial velocities (V0) were calculated in the linear range of a product versus time plot.\nTo first investigate the linearity intervals, initial time-courses were done for each enzyme. EUGT11 was assayed at 37° C. for 48 h at initial concentrations of 100 μM RebA and 300 μM UDP-glucose. UGT91D2e-b was assayed at 37° C. for 24 h at initial concentrations of 200 μM RebA and 600 μM UDP-glucose. Based on these range-finding studies, it was determined that the initial 10 minutes in the case of EUGT11, and the initial 20 minutes in UGT91D2e-b would be in the linear range with respect to product formation, and therefore initial velocities of each reaction were calculated in those intervals. In the case of EUGT11, RebA concentrations assayed were 30 μM, 50 μM, 100 μM, 200 μM, 300 μM and 500 μM. Concentration of UDP-glucose was always three times the concentration of RebA and incubation was performed at 37° C. By plotting the calculated V0 as a function of the substrate concentrations, Michaelis-Menten curves were generated. By plotting the reciprocal of V0 and the reciprocal of [S], a Lineweaver-Burk graphic was obtained, with y=339.85x+1.8644; R^2=0.9759.\n(§4) Vmax and KM parameters were determined from the curve-fit Lineweaver-Burk data, calculated from the x- and y intercepts (x=0, y=1/Vmax) and (y=0, x=−1/KM). Additionally, the same parameters also were calculated by a non-linear least squares regression, using the SOLVER function in Excel. The results obtained with both methods for EUGT11 and RebA are presented in Table 12, along with all the kinetic parameters of this example. Kcat is calculated based on Vmax divided by the approximate amount of protein in the assay.\n(§5) In the case of UGT91D2e-b, RebA concentrations assayed were 50 μM, 100 μM, 200 μM, 300 μM, 400 μM and 500 μM. Concentration of UDP-glucose was always three times the concentration of RebA and incubation was performed at 30° C., in the reaction conditions described above for UGT91D2e-b. Additionally, kinetic parameters of UGT91D2e-b towards UDP-glucose were determined. UGT91D2e-b was incubated with increasing amounts of UDP-glucose (30 μM, 50 μM, 100 μM, and 200 μM), maintaining an excess of RebA (1500 μM). incubation was performed at 30° C., in optimal conditions for UGT91D2e-b."}, "[6]": {"experiment": "Enzyme kinetics with UDP-glucose as substrate", "assay_type": "biochemical", "experimental": "as §3, §4\nIn order to investigate the influence of UDP-glucose concentration in the glycosylation reaction, as well as the affinity of EUGT11 for UDP-glucose, similar kinetics analysis were performed. EUGT11 was incubated with increasing amounts of UDP-glucose (20 μM, 50 μM, 100 μM, and 200 μM), maintaining an excess of RebA (500 μM).\nas §5"}},
  "data": [
    {"molecule": "C=C1C[C@@]23CC[C@H]4[C@@](C)(CCC[C@@]4(C)C(=O)O[C@@H]4O[C@H](CO)[C@@H](O)[C@H](O)[C@H]4O[C@@H]4O[C@H](CO)[C@@H](O)[C@H](O)[C@H]4O)[C@@H]2CC[C@]1(O[C@@H]1O[C@H](CO)[C@@H](O)[C@H](O[C@@H]2O[C@H](CO)[C@@H](O)[C@H](O)[C@H]2O)[C@H]1O[C@@H]1O[C@H](CO)[C@@H](O)[C@H](O)[C@H]1O)C3", "note": "[RebD, Rebaudioside D]", "values": [
      {"measurement": "concentration soluble in water initially", "setting": "RebD solubility in water; 72 hours", "result": "≤ 1000", "unit": "µM"},
      {"measurement": "concentration stable for longer periods of time", "setting": "RebD solubility in water; water", "result": "≤ 500", "unit": "µM"}
    ]},
    {"molecule": "UGT74G1: S. rebaudiana UGT, SEQ ID NO:1 (protein, listed as Stevia rebaudiana) MAEQQKIKKSPHVLLIPFPLQGHINPFIQFGKRLISKGVKTTLVTTIHTLNSTLNHSNTTTTSIEIQAISDGCDEGGFMSAGESYLETFKQVGSKSLADLIKKLQSEGTTIDAIIYDSMTEWVLDVAIEFGIDGGSFFTQACVVNSLYYHVHKGLISLPLGETVSVPGFPVLQRWETPLILQNHEQIQSPWSQMLFGQFANIDQARWVFTNSFYKLEEEVIEWTRKIWNLKVIGPTLPSMYLDKRLDDDKDNGFNLYKANHHECMNWLDDKPKESVVYVAFGSLVKHGPEQVEEITRALIDSDVNFLWVIKHKEEGKLPENLSEVIKTGKGLIVAWCKQLDVLAHESVGCFVTHCGFNSTLEAISLGVPVVAMPQFSDQTTNAKLLDEILGVGVRVKADENGIVRRGNLASCIKMIMEEERGVIIRKNAVKWKDLAKVAVHEGGSSDNDIVEFVSELIKA", "values": [
      {"measurement": "denaturation temperature TD", "setting": "[1]", "result": 86, "unit": "°C"},
      {"measurement": "activity of GeneArt lysate as a percentage of the wild-type enzyme", "setting": "[2]", "result": "equivalent activity"}
    ]},
    {"molecule": "91D2e-b: UGT91D2e double mutant C631A/T857C, amino acid modifications L211M and V286A (protein, listed as Stevia rebaudiana) MATSDSIVDDRKQLHVATFPWLAFGHILPYLQLSKLIAEKGHKVSFLSTTRNIQRLSSHISPLINVVQLTLPRVQELPEDAEATTDVHPEDIPYLKKASDGLQPEVTRFLEQHSPDWIIYDYTHYWLPSIAASLGISRAHFSVTTPWAIAYMGPSADAMINGSDGRTTVEDLTTPPKWFPFPTKVCWRKHDLARLVPYKAPGISDGYRMGMVLKGSDCLLSKCYHEFGTQWLPLLETLHQVPVVPVGLLPPEIPGDEKDETWVSIKKWLDGKQKGSVVYVALGSEALVSQTEVVELALGLELSGLPFVWAYRKPKGPAKSDSVELPDGFVERTRDRGLVWTSWAPQLRILSHESVCGFLTHCGSGSIVEGLMFGHPLIMLPIFGDQPLNARLLEDKQVGIEIPRNEEDGCLTKESVARSLRSVVVEKEGEIYKANARELSKIYNDTKVEKEYVSQFVDYLEKNARAVAIDHES", "values": [
      {"measurement": "stevioside formed by lysates", "setting": "[3]", "result": "> 10", "unit": "µM"},
      {"measurement": "RebD formed by lysates", "setting": "[4]", "result": "> 1.5", "unit": "µM"},
      {"measurement": "denaturation temperature TD", "setting": "[1]", "result": 79, "unit": "°C"},
      {"measurement": "Kcat", "setting": "[5]; Lineweaver-Burk plot", "result": 0.00683, "unit": "s⁻¹"},
      {"measurement": "Km", "setting": "[5]; Lineweaver-Burk plot", "result": 1580, "unit": "µM"},
      {"measurement": "Vmax", "setting": "[5]; Lineweaver-Burk plot", "result": 0.44, "unit": "µM/min"},
      {"measurement": "Kcat", "setting": "[5]; Nonlinear Least Square Fit", "result": 0.00533, "unit": "s⁻¹"},
      {"measurement": "Km", "setting": "[5]; Nonlinear Least Square Fit", "result": 1150, "unit": "µM"},
      {"measurement": "Vmax", "setting": "[5]; Nonlinear Least Square Fit", "result": 0.34, "unit": "µM/min"},
      {"measurement": "Kcat", "setting": "[6]; Lineweaver-Burk plot", "result": 0.00317, "unit": "s⁻¹"},
      {"measurement": "Km", "setting": "[6]; Lineweaver-Burk plot", "result": 41.9, "unit": "µM"},
      {"measurement": "Vmax", "setting": "[6]; Lineweaver-Burk plot", "result": 0.18, "unit": "µM/min"},
      {"measurement": "Kcat", "setting": "[6]; Nonlinear Least Square Fit", "result": 0.0033, "unit": "s⁻¹"},
      {"measurement": "Km", "setting": "[6]; Nonlinear Least Square Fit", "result": 45.1, "unit": "µM"},
      {"measurement": "Vmax", "setting": "[6]; Nonlinear Least Square Fit", "result": 0.19, "unit": "µM/min"}
    ]}
  ]
}
